The values below are quoted from earlier work in patent US20220031810A1, “FORMULATIONS OF GLUCAGON-LIKE-PEPTIDE-2 (GLP-2) ANALOGUES” (Zealand Pharma A/S, priority 2018, published 2022).

Read-outs that look alike come from different tables or passages of the source.

Regarding `CC[C@H](C)[C@H](NC(=O)[C@H](Cc1ccccc1)NC(=O)[C@H](CC(=O)O)NC(=O)[C@H](CCCNC(=N)N)NC(=O)[C@H](C)NC(=O)[C@H](C)NC(=O)[C@H](CC(C)C)NC(=O)[C@H](CC(N)=O)NC(=O)[C@H](CC(=O)O)NC(=O)[C@H](CC(C)C)NC(=O)[C@@H](NC(=O)[C@@H](NC(=O)[C@H](CC(N)=O)NC(=O)[C@H](CCSC)NC(=O)[C@H](CCC(=O)O)NC(=O)[C@H](CC(=O)O)NC(=O)[C@H](CO)NC(=O)[C@H](Cc1ccccc1)NC(=O)[C@H](CO)NC(=O)CNC(=O)[C@H](CC(=O)O)NC(=O)CNC(=O)[C@@H](N)Cc1c[nH]cn1)[C@@H](C)O)[C@@H](C)CC)C(=O)N[C@@H](CC(N)=O)C(=O)N[C@@H](Cc1c[nH]c2ccccc12)C(=O)N[C@@H](CC(C)C)C(=O)N[C@H](C(=O)N[C@@H](CCC(N)=O)C(=O)N[C@H](C(=O)N[C@@H](CCCCN)C(=O)N[C@H](C(=O)N[C@H](C(=O)N[C@@H](CC(=O)O)C(=O)O)[C@@H](C)O)[C@@H](C)CC)[C@@H](C)O)[C@@H](C)CC` [teduglutide], the half-life (usually the time needed for the level to fall by half in the phase considered) (Gly substitution at position 2, compared with native GLP-2) is listed as “about two”. As for “GLP-2 [3-33]: truncated GLP-2 [3-33] (DGSFSDEMNTILDNLAARDFINWLIQTKITD; Glucagon-like peptide 2; UniProt P01275 148-178, looked up, fragment)”, for the setting “in humans”, the half-life is around 27 min.

Take “Hy-His-Ala-Asp-Gly-Ser-Phe-Ser-Asp-Glu-Met-Asn-Thr-Ile-Leu-Asp-Asn-Leu-Ala-Ala-Arg-Asp-Phe-Ile-Asn-Trp-Leu-Ile-Gln-Thr-Lys-Ile-Thr-Asp-OH [GLP-2 [1-33]]”: the half-life result (in humans) is “around 7 minutes” and the half-life entry (in humans, listed as native GLP-2) is on record as “seven”.
